Reference: PMC4509788 (Molecular cell, 2010)

Tests used:
[1] = target: T1, GST-MAGE-G1 (human, UniProt Q96MG7 1-304); assay: pull-down
T1 sequence (looked up): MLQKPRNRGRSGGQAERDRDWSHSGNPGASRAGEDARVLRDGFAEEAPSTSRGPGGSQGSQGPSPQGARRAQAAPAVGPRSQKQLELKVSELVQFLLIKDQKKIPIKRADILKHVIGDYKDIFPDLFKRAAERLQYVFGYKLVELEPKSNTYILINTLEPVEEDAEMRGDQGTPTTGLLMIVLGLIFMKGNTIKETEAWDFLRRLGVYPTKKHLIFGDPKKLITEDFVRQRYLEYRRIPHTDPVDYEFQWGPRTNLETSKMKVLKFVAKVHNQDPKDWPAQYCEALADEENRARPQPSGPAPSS

[2] = target: T2, MAGE-G1 (full length, coexpressed with NSE1) (human, UniProt Q96MG7 1-304); assay: co-purification after coexpression in bacteria
T2 sequence (looked up): T1 sequence (looked up)

B1: NSE1 (purified recombinant) (natural protein, UniProt Q8WV22 1-266, looked up)
chain: MQGSTRRMGVMTDVHRRFLQLLMTHGVLEEWDVKRLQTHCYKVHDRNATVDKLEDFINNINSVLESLYIEIKRGVTEDDGRPIYALVNLATTSISKMATDFAENELDLFRKALELIIDSETGFASSTNILNLVDQLKGKKMRKKEAEQVLQKFVQNKWLIEKEGEFTLHGRAILEMEQYIRETYPDAVKICNICHSLLIQGQSCETCGIRMHLPCVAKYFQSNAEPRCPHCNDYWPHEIPKVFDPEKERESGVLKSNKKSLRSRQH
Question: Does B1 bind [1]?
Answer: Result: binds

B2: NSE1 (full length, coexpressed with MAGE-G1) (natural protein, UniProt Q8WV22 1-266, looked up)
chain: B1 chain
Question: Does B2 bind [2]?
Answer: Result: binds
